Data reported in the Human Domainome abundance scans (Beltran et al. 2025).
± gives the uncertainty stated by the source.

test: abundance fitness (aPCA) (normalised: wild type 0, dead -1); higher = more abundant; growth selection in yeast, the domain comes from the species named; details: Homo sapiens

Going from “Scaffold attachment factor B2 G51P, Q14151” to “Scaffold attachment factor B2 K62W, Q14151”, the abundance fitness rises from -0.998 ± 0.26 to -0.375 ± 0.12.

Going from “Scaffold attachment factor B2 S31C, Q14151” to “Scaffold attachment factor B2 K65D, Q14151”, the abundance fitness rises from -0.415 ± 0.16 to 0.036 ± 0.14.

“Scaffold attachment factor B2 E58M, Q14151” and “Scaffold attachment factor B2 L33R, Q14151” are within error of each other in abundance fitness: -0.162 ± 0.11 for the first, -0.331 ± 0.075 for the second.

Going from “Scaffold attachment factor B2 I36P, Q14151” to “Scaffold attachment factor B2 K53W, Q14151”, the abundance fitness falls from 0.067 ± 0.096 to -0.39 ± 0.11.

Compared with “Scaffold attachment factor B2 D37Q, Q14151”, “Scaffold attachment factor B2 N52R, Q14151” is higher in abundance fitness: -0.514 ± 0.11 for the first, -0.229 ± 0.081 for the second.

Going from “Scaffold attachment factor B2 A63I, Q14151” to “Scaffold attachment factor B2 R29T, Q14151”, the abundance fitness rises from -0.546 ± 0.16 to -0.01 ± 0.16.

“Scaffold attachment factor B2 V55K, Q14151” and “Scaffold attachment factor B2 L47Q, Q14151” are within error of each other in abundance fitness: -0.267 ± 0.094 for the first, -0.287 ± 0.12 for the second.

Going from “Scaffold attachment factor B2 V35C, Q14151” to “Scaffold attachment factor B2 G50C, Q14151”, the abundance fitness rises from -0.565 ± 0.12 to -0.082 ± 0.12.

“Scaffold attachment factor B2 A63S, Q14151” and “Scaffold attachment factor B2 A63R, Q14151” are within error of each other in abundance fitness: -0.367 ± 0.13 for the first, -0.433 ± 0.089 for the second.

“Scaffold attachment factor B2 G68L, Q14151” and “Scaffold attachment factor B2 K53A, Q14151” are within error of each other in abundance fitness: -0.365 ± 0.098 for the first, -0.516 ± 0.08 for the second.

Going from “Scaffold attachment factor B2 R45C, Q14151” to “Scaffold attachment factor B2 T49V, Q14151”, the abundance fitness rises from -0.686 ± 0.14 to -0.201 ± 0.07.

Compared with “Scaffold attachment factor B2 T27V, Q14151”, “Scaffold attachment factor B2 I36R, Q14151” is higher in abundance fitness: -0.369 ± 0.15 for the first, 0.079 ± 0.071 for the second.

First: Scaffold attachment factor B2 L30C, Q14151
Second: Scaffold attachment factor B2 L33E, Q14151
The abundance fitness of the first is lower: -0.708 ± 0.094 for the first, -0.072 ± 0.093 for the second.

“Scaffold attachment factor B2 M57Q, Q14151” and “Scaffold attachment factor B2 K61T, Q14151” are within error of each other in abundance fitness: -0.364 ± 0.094 for the first, -0.22 ± 0.17 for the second.

Going from “Scaffold attachment factor B2 V64G, Q14151” to “Scaffold attachment factor B2 K44W, Q14151”, the abundance fitness falls from -0.294 ± 0.091 to -0.508 ± 0.081.

Going from “Scaffold attachment factor B2 K43E, Q14151” to “Scaffold attachment factor B2 R45P, Q14151”, the abundance fitness falls from -0.071 ± 0.084 to -0.682 ± 0.11.

First: Tyrosine-protein kinase Lck I67Y, P06239
Second: Scaffold attachment factor B2 G51E, Q14151
The abundance fitness of the first is higher: 0.097 ± 0.25 for the first, -0.426 ± 0.094 for the second.

First: Scaffold attachment factor B2 T49H, Q14151
Second: Scaffold attachment factor B2 L42A, Q14151
The abundance fitness of the first is lower: -0.647 ± 0.18 for the first, -0.325 ± 0.085 for the second.

First: Scaffold attachment factor B2 E58R, Q14151
Second: Scaffold attachment factor B2 L38N, Q14151
The abundance fitness of the first is higher: -0.247 ± 0.072 for the first, -0.509 ± 0.17 for the second.

Going from “Scaffold attachment factor B2 E66A, Q14151” to “Scaffold attachment factor B2 N46L, Q14151”, the abundance fitness falls from -0.092 ± 0.091 to -0.355 ± 0.087.

“Scaffold attachment factor B2 E66D, Q14151” and “Scaffold attachment factor B2 V64R, Q14151” are within error of each other in abundance fitness: -0.042 ± 0.13 for the first, -0.14 ± 0.09 for the second.

“Scaffold attachment factor B2 R29V, Q14151” and “Scaffold attachment factor B2 E58H, Q14151” are within error of each other in abundance fitness: -0.233 ± 0.08 for the first, -0.338 ± 0.15 for the second.

Going from “Scaffold attachment factor B2 L60G, Q14151” to “Scaffold attachment factor B2 M57G, Q14151”, the abundance fitness falls from -0.25 ± 0.084 to -0.631 ± 0.09.

“Scaffold attachment factor B2 T49W, Q14151” and “Scaffold attachment factor B2 V64C, Q14151” are within error of each other in abundance fitness: -0.365 ± 0.1 for the first, -0.312 ± 0.14 for the second.

“Scaffold attachment factor B2 L56R, Q14151” and “Scaffold attachment factor B2 M57N, Q14151” are within error of each other in abundance fitness: -0.39 ± 0.07 for the first, -0.492 ± 0.14 for the second.

“Scaffold attachment factor B2 V35A, Q14151” and “Scaffold attachment factor B2 N52V, Q14151” are within error of each other in abundance fitness: -0.2 ± 0.074 for the first, -0.116 ± 0.089 for the second.

“Scaffold attachment factor B2 S54E, Q14151” and “Scaffold attachment factor B2 D37E, Q14151” are within error of each other in abundance fitness: -0.038 ± 0.11 for the first, -0.012 ± 0.095 for the second.

With “Scaffold attachment factor B2 L42C, Q14151” the abundance fitness was -0.181 ± 0.11.
